The record followed here is publication PMC2383916.

Like-named read-outs stand apart in the source and are kept apart here.

In assay [1] the target is GAL4-CRY1 (mouse) (UniProt P97784). Kind of assay: two-hybrid; mammalian two-hybrid in cos-7 cells: Gal4 DBD fusion and VP16 fusion co-transfected with pFR-luc and pCMV-lacZ; reporter alone set to 1.
Assay [2] has as its target GAL4-CRY2 (mouse) (UniProt Q9R194). Described as above.
For assay [3], the target named is GAL4-PER2 (mouse) (UniProt O54943). The description is as above.
Assay [4] addresses GAL4-CRY1 (mouse) (UniProt P97784). As to the kind of experiment: two-hybrid; mammalian two-hybrid in HER911 cells: Gal4 DBD fusion and VP16 fusion co-transfected with the GAL4-based luciferase reporter pFR-luc and pCMV-lacZ; luciferase normalised to beta-galactosidase; reporter alone set to 1. For orientation: Reporter assays use an easily measured gene product as a stand-in for the process of interest.

Assay [5] addresses GAL4-CRY2 (mouse) (UniProt Q9R194). The assay is described as above.
Assay [6] deals with GAL4-PER2 (mouse) (UniProt O54943). Described as above.
Assay [7] has as its target GAL4-BMAL1 (mouse). Kind of assay: two-hybrid; mammalian two-hybrid in cos-7 cells: Gal4 DBD fusion and VP16 fusion co-transfected with pFR-luc and pCMV-lacZ; reporter alone set to 1.
In assay [8] the target is GAL4-BMAL1 (mouse). As to the kind of experiment: two-hybrid; mammalian two-hybrid in HER911 cells: Gal4 DBD fusion and VP16 fusion co-transfected with the GAL4-based luciferase reporter pFR-luc and pCMV-lacZ; luciferase normalised to beta-galactosidase; reporter alone set to 1.
Assay [9] concerns the target GAL4-BMAL1ΔC-term (mouse). The assay is described as above.
Assay [10] has as its target GAL4-BMAL1ΔPAS B/C-term (mouse). The assay is described as above.
Another assay has as its target GAL4-CLOCK (mouse) (UniProt O08785). The assay is described as above.
Assay [11] has as its target GAL4-BMAL1 (mouse). The description is as above. This is another data set of the same source.
The target in assay [12] is GAL4-BMAL1ΔHLH/PAS A (mouse). The description is as above.
In assay [13] the target is GAL4-BMAL1ΔC-term (mouse). The assay is described as above. The source holds these as a separate data set.

Sequence of UniProt O54943 (O54943 whole entry, the tested form may be a part): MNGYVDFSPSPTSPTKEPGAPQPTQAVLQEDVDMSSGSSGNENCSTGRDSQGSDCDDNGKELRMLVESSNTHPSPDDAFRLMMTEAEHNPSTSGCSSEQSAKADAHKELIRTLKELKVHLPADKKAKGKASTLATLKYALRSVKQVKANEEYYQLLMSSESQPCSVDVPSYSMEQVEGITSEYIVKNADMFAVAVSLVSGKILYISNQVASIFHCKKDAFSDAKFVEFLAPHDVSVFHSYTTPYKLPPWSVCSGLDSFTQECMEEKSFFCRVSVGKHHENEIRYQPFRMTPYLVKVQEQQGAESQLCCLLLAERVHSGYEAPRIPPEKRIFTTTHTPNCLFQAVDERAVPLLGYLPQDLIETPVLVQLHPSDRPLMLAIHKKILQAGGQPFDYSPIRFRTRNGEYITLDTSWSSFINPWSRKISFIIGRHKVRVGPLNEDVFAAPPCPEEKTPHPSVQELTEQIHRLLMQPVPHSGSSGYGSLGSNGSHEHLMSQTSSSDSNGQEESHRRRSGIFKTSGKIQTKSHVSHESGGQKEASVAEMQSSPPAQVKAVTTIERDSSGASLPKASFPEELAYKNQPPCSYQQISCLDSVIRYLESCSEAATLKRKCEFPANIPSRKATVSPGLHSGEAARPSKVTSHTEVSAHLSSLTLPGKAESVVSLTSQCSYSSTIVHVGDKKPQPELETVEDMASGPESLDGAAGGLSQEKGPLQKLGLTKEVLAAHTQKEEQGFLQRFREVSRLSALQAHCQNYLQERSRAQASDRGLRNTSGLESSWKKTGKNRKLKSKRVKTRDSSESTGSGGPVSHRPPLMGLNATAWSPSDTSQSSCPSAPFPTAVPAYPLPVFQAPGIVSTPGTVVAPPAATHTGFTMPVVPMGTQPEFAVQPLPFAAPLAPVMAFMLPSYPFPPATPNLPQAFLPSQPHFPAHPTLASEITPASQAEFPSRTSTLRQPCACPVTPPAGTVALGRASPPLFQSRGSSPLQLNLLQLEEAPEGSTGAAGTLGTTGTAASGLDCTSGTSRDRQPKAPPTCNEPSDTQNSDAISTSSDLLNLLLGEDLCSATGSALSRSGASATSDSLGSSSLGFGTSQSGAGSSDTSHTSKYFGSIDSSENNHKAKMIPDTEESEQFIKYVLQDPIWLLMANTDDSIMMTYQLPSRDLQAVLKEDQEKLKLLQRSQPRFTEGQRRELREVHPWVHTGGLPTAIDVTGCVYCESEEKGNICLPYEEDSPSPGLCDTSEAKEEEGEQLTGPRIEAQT
Sequence of UniProt O08785 (O08785 whole entry, the tested form may be a part): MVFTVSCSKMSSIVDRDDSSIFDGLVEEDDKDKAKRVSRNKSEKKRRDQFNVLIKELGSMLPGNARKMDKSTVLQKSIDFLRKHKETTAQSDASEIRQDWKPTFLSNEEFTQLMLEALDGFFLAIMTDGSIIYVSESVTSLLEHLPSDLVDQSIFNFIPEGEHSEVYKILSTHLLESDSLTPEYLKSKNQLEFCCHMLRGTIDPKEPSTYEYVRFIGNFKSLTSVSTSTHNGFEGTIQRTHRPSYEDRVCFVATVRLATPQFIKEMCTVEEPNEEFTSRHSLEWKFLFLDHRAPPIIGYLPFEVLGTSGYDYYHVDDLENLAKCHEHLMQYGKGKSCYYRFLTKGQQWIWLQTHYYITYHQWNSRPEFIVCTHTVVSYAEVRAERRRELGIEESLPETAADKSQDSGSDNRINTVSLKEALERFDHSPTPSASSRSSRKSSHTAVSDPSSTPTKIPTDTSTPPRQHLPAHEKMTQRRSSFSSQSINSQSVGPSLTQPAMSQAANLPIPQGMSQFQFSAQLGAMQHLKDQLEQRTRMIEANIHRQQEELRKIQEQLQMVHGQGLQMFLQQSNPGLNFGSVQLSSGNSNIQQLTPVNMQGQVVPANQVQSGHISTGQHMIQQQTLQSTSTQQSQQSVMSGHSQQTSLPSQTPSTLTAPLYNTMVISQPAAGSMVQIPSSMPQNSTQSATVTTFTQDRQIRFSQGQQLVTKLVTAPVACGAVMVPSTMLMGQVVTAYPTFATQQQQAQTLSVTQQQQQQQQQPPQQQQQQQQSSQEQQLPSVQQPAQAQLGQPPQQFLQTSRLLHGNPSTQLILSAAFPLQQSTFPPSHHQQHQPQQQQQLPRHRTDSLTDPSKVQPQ

Take BMAL1-VP16 (natural protein): the fold luciferase activity over reporter alone worked out at 450 fold in the assay with GAL4-CRY1 (mouse) [1]; 125 fold with GAL4-CRY2 (mouse) [2]; 2900 fold with GAL4-PER2 (mouse) [3]; 70 fold with GAL4-CRY1 (mouse) [4]; 10 fold with GAL4-CRY2 (mouse) [5]; 110 fold with GAL4-PER2 (mouse) [6].

On to “CLOCK-VP16 (from UniProt O08785 1-855) (natural protein)”, for which the values for the fold luciferase activity over reporter alone in the assay with GAL4-PER2 (mouse) [3] and with GAL4-PER2 (mouse) [6] were 55 fold and 110 fold, respectively.

As for “PER2-VP16 (from UniProt O54943 1-1257) (natural protein)”, the fold luciferase activity over reporter alone with GAL4-BMAL1 (mouse) [7] was determined as 200 fold; with GAL4-BMAL1 (mouse) [8], 1000 fold; in [9], 150 fold; in assay [10], 5 fold; in the assay with GAL4-CLOCK (mouse) it was 75 fold.

B1: CRY2-VP16 (natural protein)
chain: MAAAAVVAATVPAQSMGADGASSVHWFRKGLRLHDNPALLAAVRGARCVRCVYILDPWFAASSSVGINRWRFLLQSLEDLDTSLRKLNSRLFVVRGQPADVFPRLFKEWGVTRLTFEYDSEPFGKERDAAIMKMAKEAGVEVVTENSHTLYDLDRIIELNGQKPPLTYKRFQALISRMELPKKPAVAVSSQQMESCRAEIQENHDDTYGVPSLEELGFPTEGLGPAVWQGGETEALARLDKHLERKAWVANYERPRMNANSLLASPTGLSPYLRFGCLSCRLFYYRLWDLYKKVKRNSTPPLSLFGQLLWREFFYTAATNNPRFDRMEGNPICIQIPWDRNPEALAKWAEGKTGFPWIDAIMTQLRQEGWIHHLARHAVACFLTRGDLWVSWESGVRVFDELLLDADFSVNAGSWMWLSCSAFFQQFFHCYCPVGFGRRTDPSGDYIRRYLPKLKGFPSRYIYEPWNAPESVQKAAKCIIGVDYPRPIVNHAETSRLNIERMKQIYQQLSRYRGLCLLASVPSCVEDLSHPVAEPGSSQAGSISNTGPRALSSGPASPKRKLEAAEEPPGEELTKRARVTEMPTQEPASKDS
As for B1, the fold luciferase activity over reporter alone with GAL4-BMAL1 (mouse) [7] came out at 70 fold; with GAL4-BMAL1 (mouse) [11] it was 950 fold. This molecule registered a fold luciferase activity over Gal4-Bmal1ΔHLH/PAS A alone in assay [12] of 3 fold.

B2: CRY1-VP16 (natural protein)
chain: MGVNAVHWFRKGLRLHDNPALKECIQGADTIRCVYILDPWFAGSSNVGINRWRFLLQCLEDLDANLRKLNSRLFVIRGQPADVFPRLFKEWNITKLSIEYDSEPFGKERDAAIKKLATEAGVEVIVRISHTLYDLDKIIELNGGQPPLTYKRFQTLVSKMEPLEMPADTITSDVIGKCMTPLSDDHDEKYGVPSLEELGFDTDGLSSAVWPGGETEALTRLERHLERKAWVANFERPRMNANSLLASPTGLSPYLRFGCLSCRLFYFKLTDLYKKVKKNSSPPLSLYGQLLWREFFYTAATNNPRFDKMEGNPICVQIPWDKNPEALAKWAEGRTGFPWIDAIMTQLRQEGWIHHLARHAVACFLTRGDLWISWEEGMKVFEELLLDADWSINAGSWMWLSCSSFFQQFFHCYCPVGFGRRTDPNGDYIRRYLPVLRGFPAKYIYDPWNAPEGIQKVAKCLIGVNYPKPMVNHAEASRLNIERMKQIYQQLSRYRGLGLLASVPSNSNGNGGLMGYAPGENVPSCSSSGNGGLMGYAPGENVPSCSGGNCSQGSGILHYAHGDSQQTHSLKQGRSSAGTGLSSGKRPSQEEDAQSVGPKVQRQSSN
As for B2, the values for the fold luciferase activity over reporter alone (in the assay with GAL4-BMAL1 (mouse) [7]; with GAL4-BMAL1 (mouse) [11]; in assay [13]) were 110 fold, 750 fold and 50 fold, respectively.
